Earlier results in paper PMC3433420.
Like-named read-outs stand apart in the source and are kept apart here.

Legend:
Conditions in all cases: cited from earlier work
TEC (Homo sapiens) = TEC (Homo sapiens) (UniProt P42680)
RASA1-NC (Homo sapiens) = RASA1-NC (Homo sapiens) (UniProt P20936)
DAPP1 (Homo sapiens) [1] = target: DAPP1 (Homo sapiens) (UniProt Q9UN19)
PIK3R1-NC (Homo sapiens) [2] = target: PIK3R1-NC (Homo sapiens) (UniProt P27986)
PIK3R1-NC (Homo sapiens) [3] = target: PIK3R1-NC (Homo sapiens) (UniProt P27986); remark: listed apart in the source
PIK3R3-NC (Homo sapiens) = PIK3R3-NC (Homo sapiens) (UniProt Q92569)
PLCG2-NC (Homo sapiens) = PLCG2-NC (Homo sapiens) (UniProt P16885)
SH2D3A (Homo sapiens) [4] = target: SH2D3A (Homo sapiens) (UniProt Q9BRG2)
PIK3R2-NC (Homo sapiens) = PIK3R2-NC (Homo sapiens) (UniProt O00459)
SH2B3 (Homo sapiens) = SH2B3 (Homo sapiens) (UniProt Q9UQQ2)
HCK (Homo sapiens) = HCK (Homo sapiens) (UniProt P08631)
SLA (Homo sapiens) = SLA (Homo sapiens) (UniProt Q13239)
FGR (Homo sapiens) = FGR (Homo sapiens) (UniProt P09769)
SYK-NC (Homo sapiens) = SYK-NC (Homo sapiens) (UniProt P43405)
PIK3R2-N (Homo sapiens) = PIK3R2-N (Homo sapiens) (UniProt O00459)
NCK2 (Homo sapiens) = NCK2 (Homo sapiens) (UniProt O43639)
SH2D1A (Homo sapiens) = SH2D1A (Homo sapiens) (UniProt O60880)
SLA2 (Homo sapiens) = SLA2 (Homo sapiens) (UniProt Q9H6Q3)
VAV3 (Homo sapiens) = VAV3 (Homo sapiens) (UniProt Q9UKW4)
SH2D3A (Homo sapiens) [5] = target: SH2D3A (Homo sapiens) (UniProt Q9BRG2); remark: listed apart in the source
SOCS3 (Homo sapiens) = SOCS3 (Homo sapiens) (UniProt O14543)
DAPP1 (Homo sapiens) [6] = target: DAPP1 (Homo sapiens) (UniProt Q9UN19); remark: listed apart in the source
SRC (Homo sapiens) = SRC (Homo sapiens) (UniProt P12931)
SH2D1B (Homo sapiens) = SH2D1B (Homo sapiens) (UniProt O14796)
ABL1 (Homo sapiens) = ABL1 (Homo sapiens) (UniProt P00519)
SHD (Homo sapiens) = SHD (Homo sapiens) (UniProt Q96IW2)
SHC1-PTB (Homo sapiens) = SHC1-PTB (Homo sapiens) (UniProt P29353)
PLCG1-NC (Homo sapiens) = PLCG1-NC (Homo sapiens) (UniProt P19174)
SOCS6 (Homo sapiens) = SOCS6 (Homo sapiens) (UniProt O14544)
TENC1 (Homo sapiens) = TENC1 (Homo sapiens) (UniProt Q63HR2)
YES1 (Homo sapiens) = YES1 (Homo sapiens) (UniProt P07947)
Chain of YES1 (Homo sapiens) (P07947 153-260): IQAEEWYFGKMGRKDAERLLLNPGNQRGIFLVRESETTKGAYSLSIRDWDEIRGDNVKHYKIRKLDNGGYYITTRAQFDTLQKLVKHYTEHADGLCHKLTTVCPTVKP

Chain of DAPP1 (Homo sapiens) (Q9UN19 30-134): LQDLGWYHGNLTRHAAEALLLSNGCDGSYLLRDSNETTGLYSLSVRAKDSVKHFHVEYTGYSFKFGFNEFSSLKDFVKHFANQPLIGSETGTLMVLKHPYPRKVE
Chain of SH2D3A (Homo sapiens) (Q9BRG2 10-119): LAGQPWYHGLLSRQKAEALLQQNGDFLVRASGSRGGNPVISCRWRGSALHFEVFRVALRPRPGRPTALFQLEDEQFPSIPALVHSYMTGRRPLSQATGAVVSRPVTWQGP
Chain of PIK3R1-NC (Homo sapiens) (P27986 328-723): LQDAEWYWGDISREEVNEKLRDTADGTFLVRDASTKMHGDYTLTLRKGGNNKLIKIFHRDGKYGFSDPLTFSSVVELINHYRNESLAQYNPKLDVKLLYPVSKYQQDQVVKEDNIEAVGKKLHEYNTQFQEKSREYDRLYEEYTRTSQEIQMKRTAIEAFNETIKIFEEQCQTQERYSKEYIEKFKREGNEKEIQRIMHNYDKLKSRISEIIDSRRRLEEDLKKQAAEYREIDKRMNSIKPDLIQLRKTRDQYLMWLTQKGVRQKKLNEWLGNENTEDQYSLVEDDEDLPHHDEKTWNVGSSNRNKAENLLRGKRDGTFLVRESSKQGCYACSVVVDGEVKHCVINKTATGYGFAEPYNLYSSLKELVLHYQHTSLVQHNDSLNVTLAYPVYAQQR
Chain of PLCG1-NC (Homo sapiens) (P19174 545-761): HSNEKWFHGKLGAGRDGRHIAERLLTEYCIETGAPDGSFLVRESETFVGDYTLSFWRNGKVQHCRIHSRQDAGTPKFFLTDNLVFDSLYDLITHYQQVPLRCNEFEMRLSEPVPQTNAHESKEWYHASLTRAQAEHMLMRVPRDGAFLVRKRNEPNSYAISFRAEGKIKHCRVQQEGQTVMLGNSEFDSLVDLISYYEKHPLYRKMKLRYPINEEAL
Chain of PIK3R2-NC (Homo sapiens) (O00459 325-721): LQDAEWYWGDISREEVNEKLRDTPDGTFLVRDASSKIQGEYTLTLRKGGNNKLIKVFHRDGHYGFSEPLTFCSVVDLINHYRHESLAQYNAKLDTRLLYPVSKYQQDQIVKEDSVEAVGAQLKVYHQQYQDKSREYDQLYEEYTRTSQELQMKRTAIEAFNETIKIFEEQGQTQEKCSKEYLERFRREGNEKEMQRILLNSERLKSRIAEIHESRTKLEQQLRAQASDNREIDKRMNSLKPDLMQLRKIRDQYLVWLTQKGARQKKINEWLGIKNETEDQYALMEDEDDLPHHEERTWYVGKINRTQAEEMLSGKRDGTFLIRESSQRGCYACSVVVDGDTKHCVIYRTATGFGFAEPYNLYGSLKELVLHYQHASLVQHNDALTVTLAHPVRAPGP
Chain of PIK3R2-N (Homo sapiens) (O00459 325-721): as above
Chain of SLA (Homo sapiens) (Q13239 79-180): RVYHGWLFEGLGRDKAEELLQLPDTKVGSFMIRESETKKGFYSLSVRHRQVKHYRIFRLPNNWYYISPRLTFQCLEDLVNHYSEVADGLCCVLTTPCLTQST
Chain of SHC1-PTB (Homo sapiens) (P29353 483-583): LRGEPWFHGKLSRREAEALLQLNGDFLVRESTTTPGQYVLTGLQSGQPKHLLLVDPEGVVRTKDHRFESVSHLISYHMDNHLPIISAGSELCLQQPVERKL
Chain of NCK2 (Homo sapiens) (O43639 280-380): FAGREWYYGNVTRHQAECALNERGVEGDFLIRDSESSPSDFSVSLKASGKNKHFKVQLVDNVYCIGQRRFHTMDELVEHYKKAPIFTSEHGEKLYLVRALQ
Chain of HCK (Homo sapiens) (P08631 139-246): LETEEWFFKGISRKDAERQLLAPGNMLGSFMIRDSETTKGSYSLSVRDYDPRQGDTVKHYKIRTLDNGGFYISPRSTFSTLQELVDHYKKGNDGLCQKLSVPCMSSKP
Chain of TEC (Homo sapiens) (P42680 242-350): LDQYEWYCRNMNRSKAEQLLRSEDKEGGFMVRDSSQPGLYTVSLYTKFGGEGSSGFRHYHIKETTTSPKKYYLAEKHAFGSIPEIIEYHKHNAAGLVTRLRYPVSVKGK
Chain of ABL1 (Homo sapiens) (P00519 122-222): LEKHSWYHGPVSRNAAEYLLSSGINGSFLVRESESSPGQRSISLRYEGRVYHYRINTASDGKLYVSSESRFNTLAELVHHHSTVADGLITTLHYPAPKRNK
Chain of SOCS6 (Homo sapiens) (O14544 379-496): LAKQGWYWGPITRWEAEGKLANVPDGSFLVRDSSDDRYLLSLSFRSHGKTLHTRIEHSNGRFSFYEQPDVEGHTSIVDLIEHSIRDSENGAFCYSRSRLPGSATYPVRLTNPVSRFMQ
Chain of SH2B3 (Homo sapiens) (Q9UQQ2 359-467): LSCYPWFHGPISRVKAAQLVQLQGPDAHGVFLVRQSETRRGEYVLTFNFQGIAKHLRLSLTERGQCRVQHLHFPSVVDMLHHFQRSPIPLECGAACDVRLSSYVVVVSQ
Chain of VAV3 (Homo sapiens) (Q9UKW4 667-771): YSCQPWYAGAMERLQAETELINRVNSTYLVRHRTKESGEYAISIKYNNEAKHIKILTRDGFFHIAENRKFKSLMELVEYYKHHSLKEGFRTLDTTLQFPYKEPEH
Chain of SHD (Homo sapiens) (Q96IW2 235-340): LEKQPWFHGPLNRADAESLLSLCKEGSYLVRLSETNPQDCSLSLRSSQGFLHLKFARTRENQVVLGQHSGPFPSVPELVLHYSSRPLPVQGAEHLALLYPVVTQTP
Chain of SH2D1A (Homo sapiens) (O60880 1-109): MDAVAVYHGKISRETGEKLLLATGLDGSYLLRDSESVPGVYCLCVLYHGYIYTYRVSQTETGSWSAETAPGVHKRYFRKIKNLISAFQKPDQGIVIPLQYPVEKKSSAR
Chain of PLCG2-NC (Homo sapiens) (P16885 527-740): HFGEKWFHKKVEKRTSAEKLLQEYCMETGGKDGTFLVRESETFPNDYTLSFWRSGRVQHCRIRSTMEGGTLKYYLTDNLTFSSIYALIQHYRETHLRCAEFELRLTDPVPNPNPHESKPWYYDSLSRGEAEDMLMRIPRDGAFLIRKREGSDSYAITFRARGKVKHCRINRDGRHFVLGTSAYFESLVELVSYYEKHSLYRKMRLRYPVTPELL
Chain of SH2D1B (Homo sapiens) (O14796 1-106): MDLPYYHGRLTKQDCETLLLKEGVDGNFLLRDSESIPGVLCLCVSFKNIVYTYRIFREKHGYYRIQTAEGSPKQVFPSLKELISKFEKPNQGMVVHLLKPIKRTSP
Chain of TENC1 (Homo sapiens) (Q63HR2 1135-1252): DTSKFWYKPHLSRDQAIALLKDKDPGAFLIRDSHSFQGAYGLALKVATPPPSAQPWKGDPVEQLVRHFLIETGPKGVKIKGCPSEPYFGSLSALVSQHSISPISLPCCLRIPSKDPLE
Chain of SOCS3 (Homo sapiens) (O14543 41-147): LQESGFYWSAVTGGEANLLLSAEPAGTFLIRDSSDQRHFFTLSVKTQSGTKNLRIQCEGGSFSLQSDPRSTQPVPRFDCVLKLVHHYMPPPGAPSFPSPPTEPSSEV
Chain of RASA1-NC (Homo sapiens) (P20936 176-446): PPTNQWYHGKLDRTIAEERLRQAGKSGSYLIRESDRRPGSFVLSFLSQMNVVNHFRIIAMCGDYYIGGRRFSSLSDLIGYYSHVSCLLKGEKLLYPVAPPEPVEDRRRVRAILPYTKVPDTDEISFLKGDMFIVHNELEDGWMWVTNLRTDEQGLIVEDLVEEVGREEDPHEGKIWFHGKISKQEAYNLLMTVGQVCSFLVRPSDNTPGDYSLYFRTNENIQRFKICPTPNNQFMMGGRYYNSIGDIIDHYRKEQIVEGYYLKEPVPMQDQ
Chain of SLA2 (Homo sapiens) (Q9H6Q3 89-196): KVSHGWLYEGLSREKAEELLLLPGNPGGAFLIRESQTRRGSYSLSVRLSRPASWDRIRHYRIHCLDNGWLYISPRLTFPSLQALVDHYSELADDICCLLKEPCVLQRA

…pYLVPQQGF
apparent Kd (screen) (TEC (Homo sapiens)): 2000 nM | apparent Kd (screen) (RASA1-NC (Homo sapiens)): 2000 nM | apparent Kd (screen) (DAPP1 (Homo sapiens) [1]): 2000 nM | apparent Kd (screen) (PIK3R1-NC (Homo sapiens) [2]): 1640 nM

…pYLIPQQGFd
apparent Kd (screen) (PIK3R1-NC (Homo sapiens) [3]): 175 nM | apparent Kd (screen) (PIK3R3-NC (Homo sapiens)): 204 nM | apparent Kd (screen) (PLCG2-NC (Homo sapiens)): 2000 nM | apparent Kd (screen) (SH2D3A (Homo sapiens) [4]): 2000 nM | apparent Kd (screen) (PIK3R2-NC (Homo sapiens)): 352 nM

…pYEEMRAFQ
apparent Kd (screen) (SH2B3 (Homo sapiens)): 1520 nM | apparent Kd (screen) (HCK (Homo sapiens)): 499 nM | apparent Kd (screen) (SLA (Homo sapiens)): 2000 nM | apparent Kd (screen) (FGR (Homo sapiens)): 1160 nM | apparent Kd (screen) (SYK-NC (Homo sapiens)): 1100 nM | apparent Kd (screen) (PIK3R2-N (Homo sapiens)): 49 nM | apparent Kd (screen) (NCK2 (Homo sapiens)): 1370 nM

…pYWDQDPPE
apparent Kd (screen) (SH2D1A (Homo sapiens)): 2000 nM | apparent Kd (screen) (SLA2 (Homo sapiens)): 2000 nM | apparent Kd (screen) (VAV3 (Homo sapiens)): 1120 nM | apparent Kd (screen) (SH2D3A (Homo sapiens) [5]): 1600 nM | apparent Kd (screen) (SOCS3 (Homo sapiens)): 2000 nM | apparent Kd (screen) (DAPP1 (Homo sapiens) [6]): 2000 nM | apparent Kd (screen) (SRC (Homo sapiens)): 196 nM | apparent Kd (screen) (SH2D1B (Homo sapiens)): 2000 nM | apparent Kd (screen) (ABL1 (Homo sapiens)): 1840 nM | apparent Kd (screen) (SHD (Homo sapiens)): 2000 nM | apparent Kd (screen) (SHC1-PTB (Homo sapiens)): 88 nM | apparent Kd (screen) (PLCG1-NC (Homo sapiens)): 1780 nM | apparent Kd (screen) (SOCS6 (Homo sapiens)): 2000 nM | apparent Kd (screen) (TENC1 (Homo sapiens)): 843 nM | apparent Kd (screen) (YES1 (Homo sapiens)): 219 nM
